According to the supplement of paper PMC10567573:
± gives the standard deviation.

Experiment: protein stability index of a GFP-peptide fusion (GPS, HEK-293T) (PSI 1-6); higher = more stable
[1] = treatment: DMSO, c terminus: a fixed tail appended
[2] = treatment: MLN4924 1 uM, 8 h, c terminus: a fixed tail appended
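Also: 24-mer peptide tiles fused after GFP, lentivirally expressed, FACS-sorted into six equal bins by GFP/DsRed ratio, decoded by Illumina sequencing, PSI is the read-weighted mean bin number.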

Sequence | protein stability index [1] | protein stability index [2] | protein stability index (treatment: DMSO, c terminus: native) | protein stability index (treatment: MLN4924 1 uM, 8 h, c terminus: native)
KTTLARQLQHDFPRALIFSTDDFF [N4BP2L1] | 2.41 ± 0.28 | 2.53 ± 0.25 | – | –
DLYALKSVKIPVRNHGILMETHKE [LYSMD4] | 3.02 ± 0.14 | 3.25 ± 0.12 | – | –
ELFAWGRGDSGRLGLGTRESHSCP [NEK8] | 2.95 ± 0.26 | 3.27 ± 0.22 | – | –
ESDSCQKCEQPFFWNIKQMWDTKT [WDFY1] | 3.25 ± 0.089 | 3.19 ± 0.24 | – | –
SRPELLQPLNFVRFYLPLLIHQHE [GLT8D2] | 3.09 ± 0.33 | 3.14 ± 0.59 | – | –
SETGSTGALETRSLKDHKVSFLRS [C2CD2L] | 4.48 ± 0.29 | 4.46 ± 0.19 | – | –
EIPKQVKVKKLKNLKTLDSKPGVY [DENND6A] | 3.4 ± 0.34 | 3.31 ± 0.52 | – | –
PSGHSDAQTLAMMLQEQLDAINEE [PPFIA4] | 4.94 ± 0.44 | 4.46 ± 0.21 | – | –
YYYMGFYIHSCPKMKYKGQYRPSD [ATE1] | 2.25 ± 0.82 | 2.45 ± 0.2 | – | –
FGNRIKVLRSRIRFIHLVTGCVLG [POMT2] | 2.57 ± 0.38 | 2.23 ± 0.45 | – | –
KEEAQAEIEQYRLQREKEFKAKEA [ATP6V1G1] | 5.5 ± 0.21 | 5.58 ± 0.38 | – | –
ARIYIRRTLRNFINDEMQAKGIPQ [PCMTD1] | 2.01 ± 0.33 | 2.15 ± 0.18 | – | –
EEFIATIRAAKGLDQALKEGGKLP [ZC2HC1A] | 3.98 ± 0.22 | 3.93 ± 0.16 | – | –
LYLNLALHLASDFFLKHPDKDVRL [PDS5B] | 2.73 ± 0.41 | 3.29 ± 0.27 | – | –
AHQQKKHSGFEDELSEVLENQSSQ [CHGA] | 5.28 ± 0.26 | 5.25 ± 0.34 | – | –
CRNGSSIQIAFEEVPQLPPRASIS [C2CD2L] | 3.03 ± 0.34 | 2.98 ± 0.16 | – | –
PKGEPGSKQSPPMASSPIQPRKGG [FBF1] | 5.33 ± 0.1 | 5.38 ± 0.091 | – | –
GDVHTVRKMLEQGYSPNGRDANGW [ASB7] | 3.51 ± 0.23 | 3.71 ± 0.24 | – | –
AKVTGEVLDILTRLPESVERLTGV [FLOT1] | 2.98 ± 0.37 | 3.17 ± 0.34 | – | –
SDGTDEPESKEPVEKEEEPDPEPP [SMG5] | 5.67 ± 0.23 | 5.62 ± 0.18 | – | –
SRRYNRKEPAEFNGDGAFLHDNHE [ZNF649] | 4.73 ± 0.43 | 4.45 ± 0.13 | – | –
LCQHFEAVHSGTPVTNNLLEKCKT [SPACA9] | 4.14 ± 0.13 | 4.19 ± 0.17 | – | –

Sequence | protein stability index [1] | protein stability index [2] | protein stability index (treatment: DMSO, c terminus: native) | protein stability index (treatment: MLN4924 1 uM, 8 h, c terminus: native)
DSSHDSARASEGSDSGSDKSLEGG [SMG5] | 5.54 ± 0.31 | 5.51 ± 0.31 | – | –
LPLLSPKFLVGTVGSDPLIKSDEE [KLHL20] | 4.33 ± 0.051 | 4.43 ± 0.073 | – | –
DLLTFVQNLCKGLSQPTTNLVAGC [NEUROD6] | 3 ± 1 | 2.47 ± 0.33 | – | –
LGKLPPQYALELLTVYAWERGSMK [OAS1] | 2.31 ± 0.61 | 2.36 ± 0.41 | – | –
PEAEENKQIIRKHAQTFVALCATD [CCND1] | 3.4 ± 0.73 | 3.81 ± 0.71 | – | –
GGLIYWIGLTKAGMEGDWSWVDDT [CD207] | 2.12 ± 0.7 | 3.07 ± 1.4 | – | –
KVMKQPRCGVPDVAQFVLTEGNPR [MMP1] | 3.32 ± 0.1 | 3.38 ± 0.17 | – | –
TSEGTLELQQRNPKAERLRWSPAQ [ZNF232] | 4.27 ± 0.19 | 4.25 ± 0.15 | – | –
FKHILRTEGAFGLYRGLAPNFMKV [SLC25A25] | 2.18 ± 0.31 | 2.29 ± 0.32 | – | –
RGENVVLLGEIDLEKESDTPLQQV [LSM1] | 4.96 ± 0.27 | 4.79 ± 0.18 | – | –
DSEQVPQALRRLRPRTRKVKSVSP [NCF4] | 5.21 ± 0.25 | 5.11 ± 0.24 | – | –
WNDFLMCYSSRPLLCWSVWWALST [SLC19A2] | 3.5 ± 0.3 | 3.32 ± 0.46 | – | –
RKLNSRLFVIRGQPADVFPRLFKE [CRY1] | 2.27 ± 0.38 | 2.09 ± 0.39 | – | –
GDIASGYHYGVASCEACKAFFKRT [ESRRG] | 2.76 ± 0.38 | 3.02 ± 0.41 | – | –
FRLLNLKNDSLRKRYDGLKYDVKK [TSN] | 2.85 ± 0.21 | 2.94 ± 0.32 | – | –
VLEYRRTNFEGPPRLKEDQPWMVI [FSD1] | 2.12 ± 0.44 | 2.35 ± 0.39 | – | –
EAARLEYDAYRTDLEELSLGPRDA [ARFIP2] | 4.78 ± 0.15 | 4.86 ± 0.15 | – | –
RLIATKNPEEIRGGGLLKYSNLLV [TENT5C] | 2.44 ± 0.35 | 2.26 ± 0.26 | – | –
PPKIRLKPHRLGDSEHEPVYRAEL [PWWP2B] | 4.02 ± 0.19 | 4.09 ± 0.095 | – | –
MENKSLESSQTDLKLVAHPRAKSK [ZBED1] | 5.26 ± 0.29 | 5.27 ± 0.25 | – | –
RDLTQEQTEKLLQFQDLTGIESMD [FAF2] | 5.04 ± 0.11 | 5.05 ± 0.16 | – | –
KFMLREQFEANGYFFKRPYPFVLF [KMT2E] | 3.41 ± 0.39 | 2.73 ± 0.97 | – | –

Sequence | protein stability index [1] | protein stability index [2] | protein stability index (treatment: DMSO, c terminus: native) | protein stability index (treatment: MLN4924 1 uM, 8 h, c terminus: native)
TPFQSVPPTVSQTPVIAATPVPTI [BRD3] | 4.06 ± 0.24 | 3.94 ± 0.13 | – | –
RESFTSRQKTSGPSVIQEIHQESG [C10orf62] | 4.94 ± 0.099 | 5.02 ± 0.24 | – | –
DVTCNEFFFDRNPGAFGTILTFLR [KCNG1] | 2.59 ± 0.33 | 2.65 ± 0.12 | – | –
NIQETHRLYRLKLEELTKLQNNCT [TMEM120A] | 2.92 ± 0.19 | 3.08 ± 0.29 | – | –
KKKTKVLKQRTVIEMFKSITHSTV [EHMT1] | 2.44 ± 0.35 | 2.19 ± 0.47 | – | –
NNILISAVLPTAFRVAKKRAPKVL [GDAP1] | 2.34 ± 0.24 | 2.48 ± 0.34 | – | –
ALVDGQIFCLHGGLSPSIDTLDHI [PPP2CA] | 1.9 ± 0.19 | 2.19 ± 0.38 | – | –
GKKQVPCFASMLTKKLHFFPKSN [CASP6] | – | – | 2.82 ± 0.27 | 3.51 ± 0.69
RRIHSLPQKLLGCSPALKRSHSDS [CDC25A] | 4.89 ± 0.29 | 5.21 ± 0.078 | – | –
RGLPLLKTDFGSCLLQPPSCPNGM [DLC1] | 2.69 ± 0.22 | 2.67 ± 0.41 | – | –
TAHLYSLLQTQHALGDAFADLSQK [ARFIP2] | 2.18 ± 0.25 | 2.22 ± 0.23 | – | –
RARDSPEPGAGLGIGDMAFEGDMG [PSD2] | 4.73 ± 0.13 | 4.91 ± 0.15 | – | –
LEAQPYEAVFLRAVKLYNSGDFRS [P3H4] | 2.42 ± 0.27 | 2.23 ± 0.28 | – | –
HFTAMVWKNTKKMGVGKASASDGS [GLIPR2] | 3.2 ± 0.14 | 3.36 ± 0.36 | – | –
VAVDSNLRVRELQRKVDGIQKAYD [CCDC89] | 3.85 ± 0.21 | 3.94 ± 0.39 | – | –
LVDQVTGVSRGVGFIRFDKRIEAE [ELAVL3] | 2.97 ± 0.52 | 2.88 ± 0.62 | – | –
SGDRDENSFSLNSSISSSARRTTR [MAP2] | 5.05 ± 0.28 | 4.97 ± 0.32 | – | –
LADYLVPILAPRIFGSNKWTTEQQ [ARL6IP1] | 2.34 ± 0.49 | 2.16 ± 0.16 | – | –
SFMLQDRAKGLLGTTVTFDDLMGI [FEM1C] | 2.49 ± 0.24 | 2.66 ± 0.14 | – | –
NKGTETDNDPSCVHPIIKRRQCRP [PHTF1] | 4.88 ± 0.085 | 4.81 ± 0.21 | – | –
RIGEATKPDGTVEQIGHILVSWLP [NET1] | 2.68 ± 0.29 | 2.56 ± 0.24 | – | –
